Sequences and labels used below:
B1: Cytoplasmic polyadenylation element-binding protein 2, residues 513 to 575; numbered along this chain, Q7Z5Q1 (parent)
chain: KRVEVKPYVLDDQMCDECQGARCGGKFAPFFCANVTCLQYYCEFCWANIHSRAGREFHKPLVK

± gives the uncertainty stated by the source.

The variants in the series derive from B1. The series is described as follows: abundance fitness (aPCA) (normalised: wild type 0, dead -1); higher = more abundant; growth selection in yeast, the domain comes from the species named. The settings on record: Homo sapiens.
For KRVEVKPYVLDDQMCDECQGARCGGKFAPFFCFNVTCLQYYCEFCWANIHSRAGREFHKPLVK [A33F], the abundance fitness was -0.336 ± 0.078. KRVEVKPYVLDDQMCDECQGARCGGKFAPFFCGNVTCLQYYCEFCWANIHSRAGREFHKPLVK [A33G]: the abundance fitness is -0.047 ± 0.035. Regarding KRVEVKPYVLDDQMCDECQGARCGGKFAPFFCNNVTCLQYYCEFCWANIHSRAGREFHKPLVK [A33N], the abundance fitness turned out to be 0.002 ± 0.07. Under KRVEVKPYVLDDQMCDECQGARCGGKFAPFFCMNVTCLQYYCEFCWANIHSRAGREFHKPLVK [A33M] stands -0.18 ± 0.047. Under KRVEVKPYVLDDQMCDECQGARCGGKFAPFFCTNVTCLQYYCEFCWANIHSRAGREFHKPLVK [A33T] stands 0.021 ± 0.062. With KRVEVKPYVLDDQMCDECQGARCGGKFAPFFCQNVTCLQYYCEFCWANIHSRAGREFHKPLVK [A33Q], the abundance fitness came out at 0.099 ± 0.053. Take KRVEVKPYVLDDQMCDECQGARCGGKFAPFFCRNVTCLQYYCEFCWANIHSRAGREFHKPLVK [A33R]: the abundance fitness was -0.124 ± 0.041.

KRVEVKPYVLDDQMCDECQGARCGGKFAPFFCENVTCLQYYCEFCWANIHSRAGREFHKPLVK [A33E]: the abundance fitness is 0.077 ± 0.046. Next, KRVEVKPYVLDDQMCDECQGARCGGKFAPFFCSNVTCLQYYCEFCWANIHSRAGREFHKPLVK [A33S]: 0.061 ± 0.036; KRVEVKPYVLDDQMCDECQGARCGGKFAPFFCANWTCLQYYCEFCWANIHSRAGREFHKPLVK [V35W]: -0.29 ± 0.053; KRVEVKPYVLDDQMCDECQGARCGGKFAPFFCANITCLQYYCEFCWANIHSRAGREFHKPLVK [V35I]: -0.088 ± 0.064. Consider KRVEVKPYVLDDQMCDECQGARCGGKFAPFFCANNTCLQYYCEFCWANIHSRAGREFHKPLVK [V35N], for which the abundance fitness is 0.108 ± 0.078. As for KRVEVKPYVLDDQMCDECQGARCGGKFAPFFCANCTCLQYYCEFCWANIHSRAGREFHKPLVK [V35C], the abundance fitness is -0.253 ± 0.076. In the case of KRVEVKPYVLDDQMCDECQGARCGGKFAPFFCANPTCLQYYCEFCWANIHSRAGREFHKPLVK [V35P], the abundance fitness was 0.116 ± 0.053. Next, KRVEVKPYVLDDQMCDECQGARCGGKFAPFFCANFTCLQYYCEFCWANIHSRAGREFHKPLVK [V35F]: -0.115 ± 0.06; KRVEVKPYVLDDQMCDECQGARCGGKFAPFFCANRTCLQYYCEFCWANIHSRAGREFHKPLVK [V35R]: 0.077 ± 0.039; KRVEVKPYVLDDQMCDECQGARCGGKFAPFFCANTTCLQYYCEFCWANIHSRAGREFHKPLVK [V35T]: 0.033 ± 0.053. With KRVEVKPYVLDDQMCDECQGARCGGKFAPFFCANATCLQYYCEFCWANIHSRAGREFHKPLVK [V35A], the abundance fitness amounted to 0.039 ± 0.048. With KRVEVKPYVLDDQMCDECQGARCGGKFAPFFCANHTCLQYYCEFCWANIHSRAGREFHKPLVK [V35H], the abundance fitness was -0.037 ± 0.082.

Consider KRVEVKPYVLDDQMCDECQGARCGGKFAPFFCANDTCLQYYCEFCWANIHSRAGREFHKPLVK [V35D], for which the abundance fitness is -0.091 ± 0.13. For the variant KRVEVKPYVLDDQMCDECQGARCGGKFAPFFCANETCLQYYCEFCWANIHSRAGREFHKPLVK [V35E], the abundance fitness was found to be 0.063 ± 0.062. As for KRVEVKPYVLDDQMCDECQGARCGGKFAPFFCANKTCLQYYCEFCWANIHSRAGREFHKPLVK [V35K], the abundance fitness came out at 0.002 ± 0.07.

In the case of KRVEVKPYVLDDQMCDECQGARCGGKFAPFFCANGTCLQYYCEFCWANIHSRAGREFHKPLVK [V35G], the abundance fitness was 0.058 ± 0.041. For the variant KRVEVKPYVLDDQMCDECQGARCGGKFAPFFCANMTCLQYYCEFCWANIHSRAGREFHKPLVK [V35M], the abundance fitness is -0.334 ± 0.09. Next, KRVEVKPYVLDDQMCDECQGARCGGKFAPFFCANQTCLQYYCEFCWANIHSRAGREFHKPLVK [V35Q]: 0.021 ± 0.053; KRVEVKPYVLDDQMCDECQGARCGGKFAPFFCAPVTCLQYYCEFCWANIHSRAGREFHKPLVK [N34P]: -0.878 ± 0.11.

For KRVEVKPYVLDDQMCDECQGARCGGKFAPFFCASVTCLQYYCEFCWANIHSRAGREFHKPLVK [N34S], the abundance fitness is -0.095 ± 0.04. Consider KRVEVKPYVLDDQMCDECQGARCGGKFAPFFCAFVTCLQYYCEFCWANIHSRAGREFHKPLVK [N34F], for which the abundance fitness is -0.363 ± 0.062.

On to KRVEVKPYVLDDQMCDECQGARCGGKFAPFFCADVTCLQYYCEFCWANIHSRAGREFHKPLVK [N34D], for which the abundance fitness is -0.07 ± 0.089.

Regarding KRVEVKPYVLDDQMCDECQGARCGGKFAPFFCAMVTCLQYYCEFCWANIHSRAGREFHKPLVK [N34M], the abundance fitness was -0.44 ± 0.05.

On to KRVEVKPYVLDDQMCDECQGARCGGKFAPFFCAVVTCLQYYCEFCWANIHSRAGREFHKPLVK [N34V], for which the abundance fitness is -0.29 ± 0.051. Under KRVEVKPYVLDDQMCDECQGARCGGKFAPFFCAQVTCLQYYCEFCWANIHSRAGREFHKPLVK [N34Q] stands -0.207 ± 0.078. Under KRVEVKPYVLDDQMCDECQGARCGGKFAPFFCAGVTCLQYYCEFCWANIHSRAGREFHKPLVK [N34G] stands -0.106 ± 0.05; under KRVEVKPYVLDDQMCDECQGARCGGKFAPFFCACVTCLQYYCEFCWANIHSRAGREFHKPLVK [N34C], -0.354 ± 0.082.

Regarding KRVEVKPYVLDDQMCDECQGARCGGKFAPFFCAIVTCLQYYCEFCWANIHSRAGREFHKPLVK [N34I], the abundance fitness is -0.731 ± 0.11. On to KRVEVKPYVLDDQMCDECQGARCGGKFAPFFCAWVTCLQYYCEFCWANIHSRAGREFHKPLVK [N34W], for which the abundance fitness is -0.2 ± 0.072. Under KRVEVKPYVLDDQMCDECQGARCGGKFAPFFCAAVTCLQYYCEFCWANIHSRAGREFHKPLVK [N34A] stands -0.028 ± 0.05. Regarding KRVEVKPYVLDDQMCDECQGARCGGKFAPFFCAYVTCLQYYCEFCWANIHSRAGREFHKPLVK [N34Y], the abundance fitness was -0.103 ± 0.074.

Regarding KRVEVKPYVLDDQMCDECQGARCGGKFAPFFCARVTCLQYYCEFCWANIHSRAGREFHKPLVK [N34R], the abundance fitness is -0.207 ± 0.046. Turning to KRVEVKPYVLDDQMCDECQGARCGGKFAPFFCALVTCLQYYCEFCWANIHSRAGREFHKPLVK [N34L], the abundance fitness was -1.24 ± 0.093. Under KRVEVKPYVLDDQMCDECQGARCGGKFAPFFCAEVTCLQYYCEFCWANIHSRAGREFHKPLVK [N34E] stands 0.043 ± 0.044; under KRVEVKPYVLDDQMCDECQGARCGGKFAPFFCATVTCLQYYCEFCWANIHSRAGREFHKPLVK [N34T], -0.175 ± 0.048. Regarding KRVEVKPYVLDDQMCDECQGARCGGKFAPFFCAHVTCLQYYCEFCWANIHSRAGREFHKPLVK [N34H], the abundance fitness was -0.438 ± 0.13.

For the origin of these results see the Human Domainome abundance scans (Beltran et al. 2025).
